In US5985836A, “Alpha-1 proteinase inhibitor binding peptides” (Bayer Corporation, priority 1998, dated 1999):
Ends that are not written are not given here.

Tests used:
Immunoglobulin G (IgG) = test: Purification from Effluent II+III, IgG mass balance; format: binding, human; conditions: 1 ml Eff. II+III, 4° C.
How it was run: (§1)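 Mass balance per protein was determined over the load and each step eluate (1M NaCl, 3M NaCl, 2% acetic acid) of peptide columns challenged with 1 ml Effluent II+III. The feed contained 20% ethanol and 20-25 mg/ml hSA, the flow was 865 μl/min after a 10 min residence, and the temperature was 4° C.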

A1PI [1] = target: T1, A1PI (Homo sapiens, UniProt P01009); test: Purification of A1PI from Effluent II+III on peptide column, A1PI mass balance; format: binding; conditions: A1PI, 1 ml Eff. II+III, 4° C.
T1 construct: Human plasma is currently the only approved source of therapeutic AlPI
T1 sequence (P01009 25-418): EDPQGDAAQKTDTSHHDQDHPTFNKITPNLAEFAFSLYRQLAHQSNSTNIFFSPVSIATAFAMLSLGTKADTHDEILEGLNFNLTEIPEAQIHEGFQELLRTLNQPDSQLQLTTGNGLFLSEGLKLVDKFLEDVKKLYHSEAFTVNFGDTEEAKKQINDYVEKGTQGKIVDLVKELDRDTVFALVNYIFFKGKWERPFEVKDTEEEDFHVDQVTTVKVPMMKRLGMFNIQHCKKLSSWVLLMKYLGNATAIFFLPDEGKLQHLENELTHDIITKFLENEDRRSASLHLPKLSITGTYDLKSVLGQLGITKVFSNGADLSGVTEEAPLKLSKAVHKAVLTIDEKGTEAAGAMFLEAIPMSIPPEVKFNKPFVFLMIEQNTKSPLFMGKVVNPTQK
How it was run: as §1

A1PI [2] = target: T1, A1PI; test: Capture and elution of active A1PI with 2M urea buffer (elastase inhibition activity assay and immunonephelometry); format: binding; conditions: 4° C.; for Mass A1PI in Urea Eluate (mg), Activity / Mass A1PI in Urea Eluate (mg), Nephelometry: 1 mg A1PI, eluted with 2M urea, pH 6; for Mass A1PI in Urea Eluate (mg), Activity: elastase inhibition activity assay; for Mass A1PI in Urea Eluate (mg), Nephelometry: immunonephelometry; for Specific Activity: mass of A1PI by activity assay relative to immunonephelometry, urea eluate
[3] = target: T2, apolipoprotein alpha-1 (Apo A-1) (Homo sapiens, UniProt P02647); test: Purification from Effluent II+III, Apo A-1 mass balance; format: binding; conditions: 1 ml Eff. II+III, 4° C.
T2 construct: Eff; II+III is a process intermediate in the Cohn plasma fractionation process; tissue Bayer Corporation (Clayton, N.C.); host or cells: plasma fraction: Cohn Effluent II+III
T2 sequence (P02647 19-267): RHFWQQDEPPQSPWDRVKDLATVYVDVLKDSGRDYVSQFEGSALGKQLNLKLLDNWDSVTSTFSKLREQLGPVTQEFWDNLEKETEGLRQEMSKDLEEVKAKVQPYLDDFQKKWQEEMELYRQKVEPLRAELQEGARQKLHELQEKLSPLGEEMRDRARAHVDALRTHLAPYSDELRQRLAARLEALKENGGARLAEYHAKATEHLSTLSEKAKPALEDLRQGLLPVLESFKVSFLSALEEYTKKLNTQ
How it was run: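 Feed: 1 ml Eff. II+III (20% EtOH, 20-25 mg/ml hSA, ~1 mg/ml A1PI). 10 min residence, then 865 μl/min; steps 1M NaCl / 3M NaCl / 2% acetic acid; 4° C. Mass balance per fraction.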

Immunoglobulin A (IgA) = test: Purification from Effluent II+III, IgA mass balance; format: binding, human; conditions: 1 ml Eff. II+III, 4° C.
How it was run: as §1

A1PI [4] = target: T1, A1PI; test: A1PI binding on peptide-resin column, injection of 1 mg A1PI in equilibration buffer; conditions: for Percent AlPI Eluted by Fraction, 1M NaCl / Percent AlPI Eluted by Fraction, 2% Acetic Acid / Percent AlPI Eluted by Fraction, Flowthrough: sequence order, 1 mg AlPI
How it was run: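 Percent of total eluted A1PI per fraction (flowthrough, NaCl steps, 2% acetic acid) determined by A280 integration or immunonephelometry. Columns of peptide-derivatized A-Totda-Toyopearl resin (0.1 mmole/g) received 1 mg A1PI at 4 °C or 20 °C, flow 865 or 523 μl/min.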

A1PI [5] = target: T1, A1PI; test: A1PI purification from 5 mg hSA + 1 mg A1PI on peptide column, A1PI mass balance; format: binding; conditions: A1PI, 5 mg hSA + 1 mg A1PI
How it was run: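 Mass balance by immunonephelometry of fractions from step elutions (1M NaCl, 3M NaCl, 2% acetic acid, neutralised with Tris) at 865 μl/min. Sample was a mixture of 1 mg A1PI and 5 mg hSA held 10 min on peptide-derivatised Toyopearl columns (0.1 mmole/g) at 4 °C or 20 °C.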

[6] = * as in Tables 4, 5 (below detection limit)
[7] = 1 mg A1PI in equilibration buffer, 4° C.
[8] = 1 mg A1PI in equilibration buffer, 20° C.
[9] = 4° C., relative to total eluted
[10] = 20° C., * Below detection limit
[11] = 20° C., relative to total eluted
[12] = Table 19, 4° C., * Below detection limit
[13] = Table 19, 4° C., relative to total loaded
[14] = Table 19, 20° C., * Below detection limit
[15] = Table 19, 20° C., relative to total loaded

Substance: RFIYYT
- Percent Eluted by Fraction, 1M NaCl (Immunoglobulin G (IgG)): 7%
- Percent Eluted by Fraction, 2% Acetic Acid (Immunoglobulin G (IgG)): 7%
- Percent Eluted by Fraction, 3M NaCl (Immunoglobulin G (IgG)): 0%
- Percent Eluted by Fraction, Flow (Immunoglobulin G (IgG)): 86%
- Mass Protein per Eluate Fraction, 1M NaCl (Immunoglobulin G (IgG); [6]): 0.02 mg
- Mass Protein per Eluate Fraction, 2% Acetic Acid (Immunoglobulin G (IgG); [6]): 0.02 mg
- Mass Protein per Eluate Fraction, Flow (Immunoglobulin G (IgG); [6]): 0.23 mg
- Percent Eluted by Fraction, 1M NaCl (A1PI [1]): 5%
- Percent Eluted by Fraction, 2% Acetic Acid (A1PI [1]): 80%
- Percent Eluted by Fraction, 3M NaCl (A1PI [1]): 0%
- Percent Eluted by Fraction, Flow (A1PI [1]): 15%
- Mass Protein per Eluate Fraction, 1M NaCl (A1PI [1]; [6]): 0.05 mg
- Mass Protein per Eluate Fraction, 2% Acetic Acid (A1PI [1]; [6]): 0.81 mg
- Mass Protein per Eluate Fraction, Flow (A1PI [1]; [6]): 0.15 mg
- Mass A1PI in Urea Eluate (mg), Activity (A1PI [2]): 0.67 mg
- Mass A1PI in Urea Eluate (mg), Nephelometry (A1PI [2]): 0.80 mg
- Specific Activity (A1PI [2]): 0.84 mg/mg
- Percent Eluted by Fraction, 1M NaCl [3]: 0%
- Percent Eluted by Fraction, 2% Acetic Acid [3]: 100%
- Percent Eluted by Fraction, 3M NaCl [3]: 0%
- Percent Eluted by Fraction, Flow [3]: 0%
- Mass Protein per Eluate Fraction, 2% Acetic Acid [3, 6]: 0.37 mg
- Percent Eluted by Fraction, 1M NaCl (Immunoglobulin A (IgA)): 31%
- Percent Eluted by Fraction, 2% Acetic Acid (Immunoglobulin A (IgA)): 38%
- Percent Eluted by Fraction, 3M NaCl (Immunoglobulin A (IgA)): 0%
- Percent Eluted by Fraction, Flow (Immunoglobulin A (IgA)): 31%
- Mass Protein per Eluate Fraction, 1M NaCl (Immunoglobulin A (IgA); [6]): 0.10 mg
- Mass Protein per Eluate Fraction, 2% Acetic Acid (Immunoglobulin A (IgA); [6]): 0.12 mg
- Mass Protein per Eluate Fraction, Flow (Immunoglobulin A (IgA); [6]): 0.10 mg
- Percent A1PI Eluted by Fraction Based on Absorbance at 280 nm, 1M NaCl (A1PI [4]; [7]): 57%
- Percent A1PI Eluted by Fraction Based on Absorbance at 280 nm, 2% Acetic Acid (A1PI [4]; [7]): 43%
- Percent A1PI Eluted by Fraction Based on Absorbance at 280 nm, Flowthrough (A1PI [4]; [7]): 0%
- Percent A1PI Eluted by Fraction, 1M NaCl (A1PI [4]; [8]): 64%
- Percent A1PI Eluted by Fraction, 2% Acetic Acid (A1PI [4]; [8]): 36%
- Percent A1PI Eluted by Fraction, Flowthrough (A1PI [4]; [8]): 0%
- Mass Protein per Eluate Fraction, 1M NaCl (A1PI [5]; 4° C., * Below detection limit): 0.27 mg
- Mass Protein per Eluate Fraction, 2% Ac. Acid (A1PI [5]; 4° C., * Below detection limit): 0.64 mg
- Mass Protein per Eluate Fraction, 3M NaCl (A1PI [5]; 4° C., * Below detection limit): 0.04 mg
- Mass Protein per Eluate Fraction, Flow (A1PI [5]; 4° C., * Below detection limit): 0.03 mg
- Percent Eluted by Fraction, 1M NaCl (A1PI [5]; [9]): 27%
- Percent Eluted by Fraction, 2% Ac. Acid (A1PI [5]; [9]): 66%
- Percent Eluted by Fraction, 3M NaCl (A1PI [5]; [9]): 4%
- Percent Eluted by Fraction, Flow (A1PI [5]; [9]): 3%
- Mass Protein per Eluate Fraction, 1M NaCl (A1PI [5]; [10]): 0.11 mg
- Mass Protein per Eluate Fraction, 2% Ac. Acid (A1PI [5]; [10]): 0.44 mg
- Mass Protein per Eluate Fraction, Flow (A1PI [5]; [10]): 0.29 mg
- Percent Eluted by Fraction, 1M NaCl (A1PI [5]; [11]): 12%
- Percent Eluted by Fraction, 2% Ac. Acid (A1PI [5]; [11]): 53%
- Percent Eluted by Fraction, 3M NaCl (A1PI [5]; [11]): 0%
- Percent Eluted by Fraction, Flow (A1PI [5]; [11]): 35%

Substance: RVLFIH: reversed sequence of VIFLVR with C-terminal His
- Mass A1PI in Urea Eluate (mg), Activity (A1PI [2]): 0.56 mg
- Mass A1PI in Urea Eluate (mg), Nephelometry (A1PI [2]): 0.71 mg
- Specific Activity (A1PI [2]): 0.79 mg/mg
- Percent AlPI Eluted by Fraction, 1M NaCl (A1PI [4]; 4° C.): 29%
- Percent AlPI Eluted by Fraction, 2% Acetic Acid (A1PI [4]; 4° C.): 71%
- Percent AlPI Eluted by Fraction, Flowthrough (A1PI [4]; 4° C.): 0%
- Percent AlPI Eluted by Fraction, 1M NaCl (A1PI [4]; 20° C.): 3%
- Percent AlPI Eluted by Fraction, 2% Acetic Acid (A1PI [4]; 20° C.): 97%
- Percent AlPI Eluted by Fraction, Flowthrough (A1PI [4]; 20° C.): 0%
- Mass Protein per Eluate Fraction, 1M NaCl (A1PI [5]; [12]): 0.14 mg
- Mass Protein per Eluate Fraction, 2% Acetic Acid (A1PI [5]; [12]): 0.43 mg
- Mass Protein per Eluate Fraction, Flow (A1PI [5]; [12]): 0.31 mg
- Percent Eluted by Fraction, 1M NaCl (A1PI [5]; [13]): 16%
- Percent Eluted by Fraction, 2% Acetic Acid (A1PI [5]; [13]): 49%
- Percent Eluted by Fraction, 3M NaCl (A1PI [5]; [13]): 0%
- Percent Eluted by Fraction, Flow (A1PI [5]; [13]): 35%
- Mass Protein per Eluate Fraction, 1M NaCl (A1PI [5]; [14]): 0.00 mg
- Mass Protein per Eluate Fraction, 2% Acetic Acid (A1PI [5]; [14]): 0.65 mg
- Mass Protein per Eluate Fraction, Flow (A1PI [5]; [14]): 0.09 mg
- Percent Eluted by Fraction, 1M NaCl (A1PI [5]; [15]): 0%
- Percent Eluted by Fraction, 2% Acetic Acid (A1PI [5]; [15]): 88%
- Percent Eluted by Fraction, 3M NaCl (A1PI [5]; [15]): 0%
- Percent Eluted by Fraction, Flow (A1PI [5]; [15]): 12%
